10 molecules from patent US20220144960A1 (NANJING LEGEND BIOTECH, published 2022) can be followed below.

One assay deals with T1, rhesus CD30 ECD (rhesus, UniProt P28908 19-379 (human entry)).
T1 construct: Produced in house; also called recombinant rhesus CD30; rhesus CD30 protein
T1 chain: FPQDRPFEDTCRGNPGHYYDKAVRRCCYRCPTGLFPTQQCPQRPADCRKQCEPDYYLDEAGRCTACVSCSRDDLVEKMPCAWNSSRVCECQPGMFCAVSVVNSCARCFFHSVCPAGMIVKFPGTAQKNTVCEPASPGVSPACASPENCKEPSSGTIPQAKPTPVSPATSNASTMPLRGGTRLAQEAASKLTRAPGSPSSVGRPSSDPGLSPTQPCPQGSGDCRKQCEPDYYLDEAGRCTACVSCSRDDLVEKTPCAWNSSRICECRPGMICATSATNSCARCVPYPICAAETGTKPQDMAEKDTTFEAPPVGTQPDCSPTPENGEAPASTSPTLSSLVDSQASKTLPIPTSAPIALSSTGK
The assay can be described thus: ELISA on rhesus CD30 ECD protein; member of the group by paragraph 437.

The target of assay [1] is T2, recombinant human CD30 extra cellular domain (ECD) protein (human, UniProt P28908 19-379).
T2 construct: Bought from R&D systems; also called rhCD30; human CD30 ECD
T2 sequence: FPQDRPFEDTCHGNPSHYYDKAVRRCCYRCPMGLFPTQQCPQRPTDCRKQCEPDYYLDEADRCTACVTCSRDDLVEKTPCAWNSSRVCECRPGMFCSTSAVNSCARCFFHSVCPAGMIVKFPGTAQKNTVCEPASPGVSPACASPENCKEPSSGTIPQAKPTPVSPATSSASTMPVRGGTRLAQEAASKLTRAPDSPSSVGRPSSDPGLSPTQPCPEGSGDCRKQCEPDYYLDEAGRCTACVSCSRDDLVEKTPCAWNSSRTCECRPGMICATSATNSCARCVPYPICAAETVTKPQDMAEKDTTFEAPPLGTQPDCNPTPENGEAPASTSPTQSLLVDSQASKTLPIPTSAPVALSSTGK
The assay can be described thus: SPR Biacore T200, His-tagged sdAb/Fab captured, 100.0 nM human CD30 as analyte, single curve. As to the method:
(§1) Some of these unique binders were subjected to for further characterization by surface plasmon resonance (SPR) on a BIAcore T200 instrument (GE Healthcare). The experiment was carried out as follows. The crude sdAb/Fab proteins were captured through an affinity tag (6×Histidine tag) onto the sensorchip. High-concentration (100.0 nM) of human CD30 (R&D systems, Cat. #6126-CD) flowed over the sensorchip surface, and were allowed to bind the antibody fragments for 300 s followed by injection of the running buffer to allow dissociation of the complex. On-rate ([…] and off-rate (kd) were roughly calculated based on one association and dissociation curve, and were used to estimate the equilibrium dissociation constant (KD). 5F11 scFv (SEQ ID NO:216, prepared according to WO2017066122) was used as a positive control. Data were summarized in Table 3 below. The first 10 antibodies in Table 3 were sdAbs with amino acid sequence ID numbers summarized in Table 1, the last antibody was 5F11 scFv, and the remainings were human Fabs with CDR and scFv amino acid sequence ID numbers in Table 2.
For orientation: SPR reads the build-up and loss of mass on a sensor chip optically.

Assay [2] deals with T3, human CD30 CRD6 (E282-K379) Fc fusion protein with human IgG1 Fc fragment at the C terminus (human).
T3 construct: also called CRD6 construct
The assay can be described thus: ELISA on the CD30 fragment CRD6, absorbance OD 450 nm; sdAb concentration not given.

The target in assay [3] is T4, human CD30 CRD1 (F19-Q68) Fc fusion protein with human IgG1 Fc fragment at the C terminus (human).
T4 construct: also called CRD1 construct
The assay can be described thus: SPR, captured Fab, Fc-fused CRD protein as analyte. As to the method:
as §1
(§2) Cysteine rich domains (CRDs) of human CD30 and the flanking residues, i.e., CRD1 (F19-Q68, SEQ ID NO: 3), CRD2 (R66-E107, SEQ ID NO: 4), CRD3 (E107-5153, SEQ ID NO: 5), CRD4 (E150-Q243, SEQ ID NO: 6), CRD5 (R241-E282, SEQ ID NO: 7) and CRD6 (E282-K379, SEQ ID NO: 8), were produced as Fc fusion proteins with human IgG1 Fc fragment (SEQ ID NO: 217) at the C terminus and used for epitope determination using SPR following the protocol similar to what was described above, only the analytes used were human IgG1 Fc-fused CRD proteins.

Assay [4] deals with T5, human CD30 CRD2 (R66-E107) Fc fusion protein with human IgG1 Fc fragment at the C terminus (human).
T5 construct: also called CRD2 construct
Briefly: SPR, captured Fab, Fc-fused CRD protein as analyte. As to the method: as §1, §2

Assay [5] deals with T6, human CD30 CRD3 (E107-S153) Fc fusion protein with human IgG1 Fc fragment at the C terminus (human).
T6 construct: also called CRD3 construct
Briefly: SPR, captured Fab, Fc-fused CRD protein as analyte. As to the method: as §1, §2

Assay [6] addresses T7, human CD30 CRD4 (E150-Q243) Fc fusion protein with human IgG1 Fc fragment at the C terminus (human).
T7 construct: also called CRD4 construct
The assay can be described thus: SPR, captured Fab, Fc-fused CRD protein as analyte. As to the method: as §1, §2

Assay [7] has as its target T8, human CD30 CRD5 (R241-E282) Fc fusion protein with human IgG1 Fc fragment at the C terminus (human).
T8 construct: also called CRD5 construct
Briefly: SPR, captured Fab, Fc-fused CRD protein as analyte. As to the method:
as §1, §2

For assay [8], the target named is T3, human CD30 CRD6 (E282-K379) Fc fusion …. The assay can be described thus: SPR, captured Fab, Fc-fused CRD protein as analyte. As to the method:
as §1, §2

T7 sequence (chain, as listed by the source limits assumed): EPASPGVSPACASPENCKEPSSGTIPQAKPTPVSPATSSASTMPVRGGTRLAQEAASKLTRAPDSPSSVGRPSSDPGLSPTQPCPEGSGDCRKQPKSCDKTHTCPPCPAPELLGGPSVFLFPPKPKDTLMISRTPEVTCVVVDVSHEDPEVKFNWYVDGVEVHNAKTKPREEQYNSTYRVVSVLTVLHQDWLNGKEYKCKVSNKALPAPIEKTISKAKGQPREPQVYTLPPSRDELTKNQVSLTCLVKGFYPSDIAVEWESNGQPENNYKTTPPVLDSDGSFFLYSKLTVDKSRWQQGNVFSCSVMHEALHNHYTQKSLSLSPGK
T3 sequence (chain, as listed by the source limits assumed): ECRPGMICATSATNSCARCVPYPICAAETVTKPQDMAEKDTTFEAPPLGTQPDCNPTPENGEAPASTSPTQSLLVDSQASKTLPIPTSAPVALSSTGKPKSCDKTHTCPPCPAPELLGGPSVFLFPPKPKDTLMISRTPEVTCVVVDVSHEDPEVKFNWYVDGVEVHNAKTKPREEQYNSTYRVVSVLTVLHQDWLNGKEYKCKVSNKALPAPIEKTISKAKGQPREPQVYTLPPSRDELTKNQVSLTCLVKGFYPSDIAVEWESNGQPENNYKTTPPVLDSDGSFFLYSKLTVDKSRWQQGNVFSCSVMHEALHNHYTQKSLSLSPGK

B1: AS54233 sdAb (VHH)
VHH: QVQLVESGGGSVQAGETLRLSCTASGFTFDGPDMAWYRQAPGNECELVSIISADGRTYYTDSVKGRFTASQDNAKNTVSLYLKSLQPEDTAVYYCAADPRRNCRGNCCGNWGPGTQVTVSS
notes: Camel sdAb
B1: the binding result in the assay with rhesus CD30 ECD is recorded as “binds”. Further, in [1], the Kd (as a rule, the free concentration of one partner at which half of the binding sites on the other are occupied at equilibrium, for simple one-to-one binding) came out at 76 nM; the koff (usually a measure of how fast the partners let go of each other) was 0.0046 s⁻¹; the kon (usually the second-order rate constant of association) turned out to be 61000 M⁻¹ s⁻¹; the “rhCD30 Binding (RU)” value is 59.2 RU. The binding result in assay [2] was “binds”.

B2: AS57911 human Fab (Fab, V domains shown)
VH: EVQLVESGGGLVQPGGSLRLSCAASGFNISSSYIHWVRQAPGKGLEWVAYISSYYSYTYYADSVKGRFTISADTSKNTAYLQMNSLRAEDTAVYYCARGYPYGMDYWGQGTLVTVSS
VL: DIQMTQSPSSLSASVGDRVTITCRASQSVSSAVAWYQQKPGKAPKLLIYSASSLYSGVPSRFSGSRSGTDFTLTISSLQPEDFATYYCQQSHALITFGQGTKVEIK
notes: Human Fab from a synthetic human Fab library, crude protein from E. coli with 6xHistidine tag
As for B2, the binding result in [3], in assay [4], in [5], in [6], in [7] and in [8] was “no binding” each time. Moreover, the binding result with rhesus CD30 ECD was “binds”. Moreover, in assay [1], the Kd turned out to be 170 nM. Besides, the koff in [1] turned out to be 0.015 s⁻¹. For the same molecule, the kon in assay [1] is 92000 M⁻¹ s⁻¹. In assay [1], the “rhCD30 Binding (RU)” value was found to be 44.6 RU.

B3: AS57659 human Fab (Fab, V domains shown)
VH: EVQLVESGGGLVQPGGSLRLSCAASGFNIYSYYIHWVRQAPGKGLEWVASIYSSYSSTYYADSVKGRFTISADTSKNTAYLQMNSLRAEDTAVYYCARSWFSYPGLDYWGQGTLVTVSS
VL: DIQMTQSPSSLSASVGDRVTITCRASQSVSSAVAWYQQKPGKAPKLLIYSASSLYSGVPSRFSGSRSGTDFTLTISSLQPEDFATYYCQQPYYLITFGQGTKVEIK
notes: as for B2
Turning to B3, the binding result in assay [3], in assay [4], in assay [5], in assay [6], in assay [7] and in [8] was “no binding” each time. Also, the binding result in the assay with rhesus CD30 ECD is reported as “binds”. Besides, in assay [1], the Kd was 27 nM. Besides, the koff in [1] was determined as 0.0022 s⁻¹. For the same molecule, in [1], the kon was determined as 82000 M⁻¹ s⁻¹. Besides, the “rhCD30 Binding (RU)” value in [1] is 83.6 RU.

B4: AS48542 sdAb (VHH)
VHH: QMQLVESGGGSVQAGETLRLSCTTSAFTFDGPDMAWYRQAPGNECVLVSIISADGRTYYADSVKGRFTISRDNAKNTVFLNLNSLQPEDTAVYYCALDPRKNCRGGYCCANWGPGTQVTVSS
notes: Camel sdAb
As to B4, in the assay with rhesus CD30 ECD, the binding result is recorded as “binds”. Also, in assay [1], the Kd worked out at 19 nM, the koff was found to be 0.0024 s⁻¹, the kon is 120000 M⁻¹ s⁻¹ and the “rhCD30 Binding (RU)” value worked out at 60.8 RU. For the same molecule, the binding result in assay [2] is recorded as “binds”.

B5: AS57765 human Fab (Fab, V domains shown)
VH: EVQLVESGGGLVQPGGSLRLSCAASGFNIYYSYMHWVRQAPGKGLEWVAYIYPYSGSTSYADSVKGRFTISADTSKNTAYLQMNSLRAEDTAVYYCARPAVHWHGYGGGYYYGLDYWGQGTLVTVSS
VL: DIQMTQSPSSLSASVGDRVTITCRASQSVSSAVAWYQQKPGKAPKLLIYSASSLYSGVPSRFSGSRSGTDFTLTISSLQPEDFATYYCQQAYYSLITFGQGTKVEIK
notes: as for B2
Take B5: the binding result in [3], in [4], in [5], in [6], in assay [7] and in [8] was “no binding” each time. In the assay with rhesus CD30 ECD, the binding result was “binds”. Also, the Kd in assay [1] turned out to be 11 nM. Also, in [1], the koff was found to be 0.0011 s⁻¹. Further, the kon in [1] turned out to be 98000 M⁻¹ s⁻¹. The “rhCD30 Binding (RU)” value in [1] was found to be 37.7 RU.

B6: AS47863 sdAb (VHH)
VHH: QVQLEESGGGSVQAGETLRLSCTASGSTFGDSDMGWYRQAPGNACELVSIISSDGRTYYVDSVKGRFTISQDNAVSTVYLQMNSLKPEDTGVYYCAADLRQYCRDGRCCGYWGQGTQVTVSS
notes: Camel sdAb
For B6, in the assay with rhesus CD30 ECD, the binding result was “binds”. Further, in [1], the Kd came out at 29 nM, the koff amounted to 0.0042 s⁻¹, the on-rate constant (kon) was determined as 140000 M⁻¹ s⁻¹ and the “rhCD30 Binding (RU)” value is 119 RU. Also, the binding result in [2] was “binds”.

B7: AS48433 sdAb (VHH)
VHH: QIQLVESGGGSVQAGETLRLSCTASGSTFGDSDMGWYRQAPGNACELVSIISSDGRTYYVDSVKGRFTISQDNAVSTVYLQMNSLNPEDTGVYYCAADLRLNCRDGRCCGYWGQGTQVTVSS
notes: Camel sdAb
As for B7, the binding result with rhesus CD30 ECD is reported as “binds”. Besides, in assay [1], the Kd stood at 25 nM, the koff amounted to 0.0023 s⁻¹, the kon is 93000 M⁻¹ s⁻¹ and the “rhCD30 Binding (RU)” value was 83.5 RU. In assay [2], the binding result is “binds”.

B8: AS48463 sdAb (VHH)
VHH: QVHLMESGGGSVQAGETLRLSCTASGFTFANSDMGWYRQAPGNACELVSIISSHGGTTYYVDSVKGRFTISRHNAENTVYLRMTSLKPEDTALYYCVADPRSNCRGGYCCGYWGPGTQVTVSS
notes: Camel sdAb
With B8, in the assay with rhesus CD30 ECD, the binding result is reported as “binds”. Further, in assay [1], the Kd is 30 nM, the koff turned out to be 0.01 s⁻¹, the kon turned out to be 340000 M⁻¹ s⁻¹ and the “rhCD30 Binding (RU)” value is 106 RU. Also, the binding result in assay [2] is given as “binds”.

B9: AS48508 sdAb (VHH)
VHH: EVQLVESGGGSVQAGGSLRLSCTASRFTFDGPDMAWYRQAPGNACELVSIISADGRTYYTDSVKGRFTISRDNAKNTVFLYLNSLQPEDTAVYYCAPDPRRNCRGGYCCGNWGPGTQVTVSS
notes: Camel sdAb
For the molecule B9, the binding result with rhesus CD30 ECD was “binds”. In assay [1], the Kd was determined as 31 nM, the koff amounted to 0.0061 s⁻¹, the kon turned out to be 200000 M⁻¹ s⁻¹ and the “rhCD30 Binding (RU)” value worked out at 69.8 RU. For the same molecule, the binding result in assay [2] was “binds”.

B10: AS53750 sdAb (VHH)
VHH: EVQLVESGGGLVQPGGSLRLSCTASGFTDDGPDMAWYRRAPGNECELVSIISADGRTYYTDSVKGRFTISRDNAKNTVFLYLNSLQPEDTAVYYCAPDPRRNCRGGDCCGNWGPGTQVTVSS
notes: Camel sdAb
For the molecule B10, the binding result in the assay with rhesus CD30 ECD was “binds”. Further, in assay [1], the Kd is 130 nM, the koff is 0.0069 s⁻¹, the kon was determined as 56000 M⁻¹ s⁻¹ and the “rhCD30 Binding (RU)” value was 284 RU. Further, the binding result in assay [2] was “binds”.
